Measurements from IntAct's records for PubMed 31515488.

Assays:
stk24_human STK24 = stk24_human STK24 (UniProt Q9Y6E0)
clip4_human CLIP4 = clip4_human CLIP4 (UniProt Q8N3C7)
klhl2_human KLHL2 = klhl2_human KLHL2 (UniProt O95198)
tpp2_human TPP2 = tpp2_human TPP2 (UniProt P29144)
tri23_human TRIM23 = tri23_human TRIM23 (UniProt P36406)
rnps1_human RNPS1 = biological target: T1, rnps1_human RNPS1 (UniProt Q15287)
T1 sequence: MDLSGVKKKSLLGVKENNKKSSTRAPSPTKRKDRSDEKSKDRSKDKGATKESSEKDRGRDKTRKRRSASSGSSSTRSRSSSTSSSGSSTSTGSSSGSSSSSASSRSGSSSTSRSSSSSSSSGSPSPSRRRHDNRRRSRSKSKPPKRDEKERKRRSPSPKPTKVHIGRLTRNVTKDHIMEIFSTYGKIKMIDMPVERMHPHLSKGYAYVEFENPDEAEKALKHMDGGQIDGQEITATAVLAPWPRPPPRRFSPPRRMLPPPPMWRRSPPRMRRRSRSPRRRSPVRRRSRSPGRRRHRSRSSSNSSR

lc7l2_human LUC7L2 = biological target: T2, lc7l2_human LUC7L2 (UniProt Q9Y383)
T2 sequence: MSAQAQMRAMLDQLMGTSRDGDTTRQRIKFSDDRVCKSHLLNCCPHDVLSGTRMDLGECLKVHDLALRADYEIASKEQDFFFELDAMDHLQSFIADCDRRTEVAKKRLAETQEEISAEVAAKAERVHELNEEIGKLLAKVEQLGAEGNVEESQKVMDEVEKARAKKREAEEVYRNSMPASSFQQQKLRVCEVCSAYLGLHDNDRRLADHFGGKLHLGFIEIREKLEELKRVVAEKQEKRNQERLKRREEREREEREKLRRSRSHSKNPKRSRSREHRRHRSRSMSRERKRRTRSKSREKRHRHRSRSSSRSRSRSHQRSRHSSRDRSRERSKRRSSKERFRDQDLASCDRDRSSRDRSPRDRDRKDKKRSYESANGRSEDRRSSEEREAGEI

rasf7_human RASSF7 = rasf7_human RASSF7 (UniProt Q02833)
pak1_human PAK1 = pak1_human PAK1 (UniProt Q13153)
trip6_human TRIP6 = trip6_human TRIP6 (UniProt Q15654)
sufu_human SUFU [1] = biological target: sufu_human SUFU (UniProt Q9UMX1)
zksc4_human ZKSCAN4 = zksc4_human ZKSCAN4 (UniProt Q969J2)
lpxn_human LPXN = lpxn_human LPXN (UniProt O60711)
stk25_human STK25 = stk25_human STK25 (UniProt O00506)
adas_human AGPS = adas_human AGPS (UniProt O00116)
cep63_human CEP63 = cep63_human CEP63 (UniProt Q96MT8)
gpt2l_human GPATCH2L = gpt2l_human GPATCH2L (UniProt Q9NWQ4)
mfap1_human MFAP1 = mfap1_human MFAP1 (UniProt P55081)
echp_human EHHADH = echp_human EHHADH (UniProt Q08426)
dpolb_human POLB = dpolb_human POLB (UniProt P06746)
pp16a_human PPP1R16A = pp16a_human PPP1R16A (UniProt Q96I34)
kr107_human KRTAP10-7 = kr107_human KRTAP10-7 (UniProt P60409)
zc4h2_human ZC4H2 = zc4h2_human ZC4H2 (UniProt Q9NQZ6)
mdfi_human MDFI = mdfi_human MDFI (UniProt Q99750)
cep55_human CEP55 = biological target: T3, cep55_human CEP55 (UniProt Q53EZ4)
T3 sequence: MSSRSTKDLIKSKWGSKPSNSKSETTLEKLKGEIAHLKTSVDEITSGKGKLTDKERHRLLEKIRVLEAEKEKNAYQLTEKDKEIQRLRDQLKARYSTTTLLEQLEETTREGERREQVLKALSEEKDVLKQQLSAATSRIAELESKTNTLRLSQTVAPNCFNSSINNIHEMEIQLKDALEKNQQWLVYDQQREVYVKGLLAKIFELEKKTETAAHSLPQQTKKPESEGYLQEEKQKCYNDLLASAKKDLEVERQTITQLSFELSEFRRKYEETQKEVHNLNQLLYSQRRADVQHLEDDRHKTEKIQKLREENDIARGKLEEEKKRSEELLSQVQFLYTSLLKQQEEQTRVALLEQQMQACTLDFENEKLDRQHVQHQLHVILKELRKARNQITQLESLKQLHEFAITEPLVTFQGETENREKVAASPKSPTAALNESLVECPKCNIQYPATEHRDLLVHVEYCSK

sf3a3_human SF3A3 = sf3a3_human SF3A3 (UniProt Q12874)
FAM90A1 = FAM90A1 (UniProt Q86YD7)
sufu_human SUFU [2] = biological target: sufu_human SUFU (UniProt Q9UMX1); remark: listed apart in the source
aen_human AEN = aen_human AEN (UniProt Q8WTP8)
nkap1_human NKAPD1 = nkap1_human NKAPD1 (UniProt Q6ZUT1)
rby1a_human RBMY1A1 = rby1a_human RBMY1A1 (UniProt P0DJD3)
ndor1_human NDOR1 = ndor1_human NDOR1 (UniProt Q9UHB4)
glrx3_human GLRX3 = glrx3_human GLRX3 (UniProt O76003)
ntaq1_human NTAQ1 = ntaq1_human NTAQ1 (UniProt Q96HA8)
frih_human FTH1 = frih_human FTH1 (UniProt P02794)
scel_human SCEL = scel_human SCEL (UniProt O95171)
dpyl2_human DPYSL2 = dpyl2_human DPYSL2 (UniProt Q16555)
acy3_human ACY3 = biological target: T4, acy3_human ACY3 (UniProt Q96HD9)
T4 sequence: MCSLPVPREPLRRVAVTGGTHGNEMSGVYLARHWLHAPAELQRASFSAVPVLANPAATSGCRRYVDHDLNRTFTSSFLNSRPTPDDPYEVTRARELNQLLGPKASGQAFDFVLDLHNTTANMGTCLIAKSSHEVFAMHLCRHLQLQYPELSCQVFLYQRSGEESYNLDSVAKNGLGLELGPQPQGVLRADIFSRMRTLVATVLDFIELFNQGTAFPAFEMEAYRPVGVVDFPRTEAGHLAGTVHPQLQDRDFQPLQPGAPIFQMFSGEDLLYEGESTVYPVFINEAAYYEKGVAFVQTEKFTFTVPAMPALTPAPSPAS

cryaa_human CRYAA = cryaa_human CRYAA (UniProt P02489)
phs_human PCBD1 = phs_human PCBD1 (UniProt P61457)
zmat1_human ZMAT1 = zmat1_human ZMAT1 (UniProt Q5H9K5)
ei2ba_human EIF2B1 = ei2ba_human EIF2B1 (UniProt Q14232)
dmc1_human DMC1 = biological target: T5, dmc1_human DMC1 (UniProt Q14565)
T5 sequence: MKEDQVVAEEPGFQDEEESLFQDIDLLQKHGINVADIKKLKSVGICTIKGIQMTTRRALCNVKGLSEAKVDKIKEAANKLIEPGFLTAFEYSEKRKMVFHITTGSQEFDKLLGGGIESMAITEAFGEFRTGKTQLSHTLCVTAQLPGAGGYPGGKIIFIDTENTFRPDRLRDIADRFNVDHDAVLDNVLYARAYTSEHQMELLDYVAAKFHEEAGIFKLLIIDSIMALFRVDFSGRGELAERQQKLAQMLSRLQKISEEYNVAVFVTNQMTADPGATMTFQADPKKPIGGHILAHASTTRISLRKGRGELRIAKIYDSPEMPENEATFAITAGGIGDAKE

Sequence of Zinc finger protein 317 (Homo sapiens), Q96PQ6 Q19H (Q96PQ6 whole entry Q19H): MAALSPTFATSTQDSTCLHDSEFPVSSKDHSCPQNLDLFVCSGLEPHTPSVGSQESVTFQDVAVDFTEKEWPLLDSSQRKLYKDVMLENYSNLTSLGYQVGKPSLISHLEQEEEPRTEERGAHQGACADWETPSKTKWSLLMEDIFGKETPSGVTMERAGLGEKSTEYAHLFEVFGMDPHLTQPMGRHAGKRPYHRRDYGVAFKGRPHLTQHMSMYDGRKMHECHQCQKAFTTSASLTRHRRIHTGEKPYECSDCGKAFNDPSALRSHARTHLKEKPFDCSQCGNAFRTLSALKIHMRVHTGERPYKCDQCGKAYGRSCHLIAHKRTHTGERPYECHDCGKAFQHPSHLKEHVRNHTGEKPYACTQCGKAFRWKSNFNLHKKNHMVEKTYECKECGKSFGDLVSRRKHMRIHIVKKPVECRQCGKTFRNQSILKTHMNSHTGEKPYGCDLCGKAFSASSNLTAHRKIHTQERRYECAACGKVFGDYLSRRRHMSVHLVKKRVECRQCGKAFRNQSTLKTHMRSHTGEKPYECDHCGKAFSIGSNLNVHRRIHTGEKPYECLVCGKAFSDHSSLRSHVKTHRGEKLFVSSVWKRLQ
Sequence of Cytoplasmic protein NCK2 (Homo sapiens), O43639 E125K (O43639 whole entry E125K): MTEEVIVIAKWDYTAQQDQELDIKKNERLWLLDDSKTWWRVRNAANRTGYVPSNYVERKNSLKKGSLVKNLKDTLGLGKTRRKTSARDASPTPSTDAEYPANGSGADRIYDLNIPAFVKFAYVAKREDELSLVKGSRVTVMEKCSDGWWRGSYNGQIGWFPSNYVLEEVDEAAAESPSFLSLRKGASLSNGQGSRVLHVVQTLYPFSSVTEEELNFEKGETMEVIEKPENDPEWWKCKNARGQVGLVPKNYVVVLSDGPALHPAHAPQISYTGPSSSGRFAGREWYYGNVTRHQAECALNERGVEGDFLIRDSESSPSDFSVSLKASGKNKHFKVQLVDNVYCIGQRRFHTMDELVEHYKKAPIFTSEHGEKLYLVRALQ
Sequence of Zinc finger protein 223 (Homo sapiens), Q9UK11 S357A (Q9UK11 whole entry S357A): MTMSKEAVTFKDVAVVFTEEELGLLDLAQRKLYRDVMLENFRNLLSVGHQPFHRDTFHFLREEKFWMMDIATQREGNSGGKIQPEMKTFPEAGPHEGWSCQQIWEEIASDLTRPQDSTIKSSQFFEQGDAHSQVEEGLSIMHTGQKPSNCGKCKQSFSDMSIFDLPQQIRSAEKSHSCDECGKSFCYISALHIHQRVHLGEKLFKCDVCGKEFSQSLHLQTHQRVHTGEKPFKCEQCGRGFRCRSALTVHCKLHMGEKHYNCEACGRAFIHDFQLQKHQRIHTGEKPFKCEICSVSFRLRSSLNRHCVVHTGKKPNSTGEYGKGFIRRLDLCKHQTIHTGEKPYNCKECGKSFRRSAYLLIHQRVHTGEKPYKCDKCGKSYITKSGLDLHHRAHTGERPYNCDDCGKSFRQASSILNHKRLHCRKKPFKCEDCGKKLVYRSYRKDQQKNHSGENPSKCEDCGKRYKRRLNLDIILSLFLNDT
Sequence of echp_human EHHADH (Q08426 whole entry): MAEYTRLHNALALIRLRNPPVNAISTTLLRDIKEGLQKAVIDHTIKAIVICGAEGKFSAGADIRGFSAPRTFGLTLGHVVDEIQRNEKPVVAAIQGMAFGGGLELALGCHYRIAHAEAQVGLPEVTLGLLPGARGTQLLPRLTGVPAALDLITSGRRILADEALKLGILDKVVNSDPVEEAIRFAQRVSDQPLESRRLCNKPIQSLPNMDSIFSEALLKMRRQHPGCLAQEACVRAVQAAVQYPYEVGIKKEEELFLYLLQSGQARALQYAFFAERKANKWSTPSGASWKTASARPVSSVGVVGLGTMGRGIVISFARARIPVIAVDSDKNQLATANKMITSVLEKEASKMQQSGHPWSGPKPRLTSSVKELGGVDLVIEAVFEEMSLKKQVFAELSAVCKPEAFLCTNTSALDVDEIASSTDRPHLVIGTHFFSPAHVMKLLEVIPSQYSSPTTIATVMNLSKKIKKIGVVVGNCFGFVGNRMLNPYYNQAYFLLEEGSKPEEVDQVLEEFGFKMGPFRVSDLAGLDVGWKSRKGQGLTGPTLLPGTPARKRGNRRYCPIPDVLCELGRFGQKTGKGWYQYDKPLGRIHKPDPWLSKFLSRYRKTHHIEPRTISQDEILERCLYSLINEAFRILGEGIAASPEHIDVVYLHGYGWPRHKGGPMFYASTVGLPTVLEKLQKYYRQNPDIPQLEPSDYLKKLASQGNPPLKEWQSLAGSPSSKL
Sequence of Anamorsin (Homo sapiens), Q6FI81 A34E (Q6FI81 whole entry A34E): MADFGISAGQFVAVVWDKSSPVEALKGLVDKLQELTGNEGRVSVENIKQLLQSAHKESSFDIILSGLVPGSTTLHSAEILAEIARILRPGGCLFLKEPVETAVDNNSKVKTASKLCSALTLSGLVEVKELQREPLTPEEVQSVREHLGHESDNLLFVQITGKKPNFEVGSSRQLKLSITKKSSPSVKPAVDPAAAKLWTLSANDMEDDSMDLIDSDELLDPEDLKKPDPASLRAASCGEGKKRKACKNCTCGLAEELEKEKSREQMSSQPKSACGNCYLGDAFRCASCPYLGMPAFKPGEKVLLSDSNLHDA
Sequence of sufu_human SUFU (Q9UMX1 whole entry): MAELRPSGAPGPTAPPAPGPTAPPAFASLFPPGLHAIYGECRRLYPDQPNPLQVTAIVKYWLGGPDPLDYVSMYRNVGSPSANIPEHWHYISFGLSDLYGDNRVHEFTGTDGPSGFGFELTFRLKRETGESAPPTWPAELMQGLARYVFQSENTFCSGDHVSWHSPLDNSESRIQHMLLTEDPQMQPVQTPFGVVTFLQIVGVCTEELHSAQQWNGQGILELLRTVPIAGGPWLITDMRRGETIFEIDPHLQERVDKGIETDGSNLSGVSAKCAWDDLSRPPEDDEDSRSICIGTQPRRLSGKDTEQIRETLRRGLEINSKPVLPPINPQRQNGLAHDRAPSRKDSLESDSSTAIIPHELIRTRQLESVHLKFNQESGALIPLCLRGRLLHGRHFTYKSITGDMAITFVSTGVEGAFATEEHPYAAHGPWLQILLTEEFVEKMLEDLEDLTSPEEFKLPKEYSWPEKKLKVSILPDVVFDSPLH
Sequence of Zinc finger protein 212 (Homo sapiens), Q9UDV6 E225K (Q9UDV6 whole entry E225K): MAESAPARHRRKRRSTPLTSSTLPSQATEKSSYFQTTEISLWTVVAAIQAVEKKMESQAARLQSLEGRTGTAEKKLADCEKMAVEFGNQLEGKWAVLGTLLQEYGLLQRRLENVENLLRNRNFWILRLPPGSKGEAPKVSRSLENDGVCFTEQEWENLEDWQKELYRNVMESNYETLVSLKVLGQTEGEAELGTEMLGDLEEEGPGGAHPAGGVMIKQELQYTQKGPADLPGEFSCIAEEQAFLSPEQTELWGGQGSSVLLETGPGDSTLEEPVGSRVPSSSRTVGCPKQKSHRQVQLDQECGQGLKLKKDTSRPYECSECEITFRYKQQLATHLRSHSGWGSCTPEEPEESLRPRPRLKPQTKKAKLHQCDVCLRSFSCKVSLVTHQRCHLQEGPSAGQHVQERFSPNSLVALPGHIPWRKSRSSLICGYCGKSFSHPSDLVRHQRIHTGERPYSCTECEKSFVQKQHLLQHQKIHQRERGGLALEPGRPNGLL
Sequence of Zinc finger protein 114 (Homo sapiens), Q8NC26 V207A (Q8NC26 whole entry V207A): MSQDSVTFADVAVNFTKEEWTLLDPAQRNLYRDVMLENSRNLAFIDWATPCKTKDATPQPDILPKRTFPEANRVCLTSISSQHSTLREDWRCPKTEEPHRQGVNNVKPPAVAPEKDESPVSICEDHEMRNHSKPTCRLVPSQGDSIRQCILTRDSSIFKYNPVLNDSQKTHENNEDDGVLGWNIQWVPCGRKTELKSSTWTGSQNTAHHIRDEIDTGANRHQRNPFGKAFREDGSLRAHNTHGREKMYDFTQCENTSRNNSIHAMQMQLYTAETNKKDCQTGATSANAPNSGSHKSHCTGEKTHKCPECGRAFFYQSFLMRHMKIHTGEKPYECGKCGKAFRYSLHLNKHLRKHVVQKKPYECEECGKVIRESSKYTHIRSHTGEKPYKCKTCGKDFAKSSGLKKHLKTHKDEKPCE
Sequence of FAM90A1 (Q86YD7 whole entry): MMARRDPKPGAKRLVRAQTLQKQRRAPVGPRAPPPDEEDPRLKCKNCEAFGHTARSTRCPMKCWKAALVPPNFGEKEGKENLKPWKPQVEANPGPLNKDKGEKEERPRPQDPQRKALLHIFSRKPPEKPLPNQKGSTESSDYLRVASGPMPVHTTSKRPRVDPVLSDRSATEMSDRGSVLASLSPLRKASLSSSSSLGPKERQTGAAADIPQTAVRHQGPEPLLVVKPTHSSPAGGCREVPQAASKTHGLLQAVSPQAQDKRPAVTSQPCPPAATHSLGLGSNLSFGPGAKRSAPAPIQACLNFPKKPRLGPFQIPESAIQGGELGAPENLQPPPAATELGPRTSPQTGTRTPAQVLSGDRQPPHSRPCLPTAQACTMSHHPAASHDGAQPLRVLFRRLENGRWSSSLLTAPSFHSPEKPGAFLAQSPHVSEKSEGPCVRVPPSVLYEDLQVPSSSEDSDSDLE
Sequence of sf3a3_human SF3A3 (Q12874 whole entry): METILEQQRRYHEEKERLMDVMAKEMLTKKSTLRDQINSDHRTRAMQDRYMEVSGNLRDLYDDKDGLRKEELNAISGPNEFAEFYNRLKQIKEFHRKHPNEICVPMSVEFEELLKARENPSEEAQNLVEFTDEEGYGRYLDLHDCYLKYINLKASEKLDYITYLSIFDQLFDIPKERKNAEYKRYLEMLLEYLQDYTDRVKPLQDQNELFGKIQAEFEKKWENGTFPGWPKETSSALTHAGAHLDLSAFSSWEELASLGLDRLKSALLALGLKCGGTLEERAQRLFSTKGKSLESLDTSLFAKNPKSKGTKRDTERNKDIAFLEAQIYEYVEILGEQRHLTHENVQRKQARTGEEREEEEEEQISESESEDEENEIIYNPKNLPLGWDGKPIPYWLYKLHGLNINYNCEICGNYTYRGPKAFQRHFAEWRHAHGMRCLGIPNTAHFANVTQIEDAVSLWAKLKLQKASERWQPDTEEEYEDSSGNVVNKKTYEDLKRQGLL
Sequence of Zinc finger protein 212 (Homo sapiens), Q9UDV6 H293Y (Q9UDV6 whole entry H293Y): as the sequence (Q9UDV6 whole entry E225K) above, with K225E, H293Y counted along it

## Programmed cell death protein 10 (Homo sapiens), Q9BUL8 M20V
stk24_human STK24
  effect of a mutation on the interaction: with no effect

## Zinc finger protein 114 (Homo sapiens), Q8NC26 V207A
clip4_human CLIP4
  effect of a mutation on the interaction: with no effect
klhl2_human KLHL2
  effect of a mutation on the interaction: with no effect

## DNA polymerase beta (Homo sapiens) (from UniProt P06746) P242R
tpp2_human TPP2
  effect of a mutation on the interaction: with no effect

## FAD synthase (Homo sapiens), Q8NFF5 R437H
tri23_human TRIM23
  effect of a mutation on the interaction: with no effect

## Serine/arginine-rich splicing factor 6 (Homo sapiens) (from UniProt Q13247-1) R145Q
rnps1_human RNPS1
  effect of a mutation on the interaction: with no effect
lc7l2_human LUC7L2
  effect of a mutation on the interaction: with no effect

## Cytoplasmic protein NCK2 (Homo sapiens), O43639 E125K
rasf7_human RASSF7
  effect of a mutation on the interaction: with no effect
pak1_human PAK1
  effect of a mutation on the interaction: with no effect
trip6_human TRIP6
  effect of a mutation on the interaction: with no effect

## Zinc finger protein 263 (Homo sapiens), O14978 C310S
sufu_human SUFU [1]
  effect of a mutation on the interaction: with no effect

## Calcium-binding protein 5 (Homo sapiens), Q9NP86 E140K
zksc4_human ZKSCAN4
  effect of a mutation on the interaction: with no effect

## Homeobox protein Hox-C9 (Homo sapiens), P31274 A122V
lpxn_human LPXN
  effect of a mutation on the interaction: with no effect

## Programmed cell death protein 10 (Homo sapiens), Q9BUL8 M92V
stk25_human STK25
  effect of a mutation on the interaction: with no effect

## Golgi reassembly-stacking protein 1 (Homo sapiens), Q9BQQ3 T425M
adas_human AGPS
  effect of a mutation on the interaction: with no effect

## Histone-lysine N-methyltransferase EZH2 (Homo sapiens), Q15910 M439T
cep63_human CEP63
  effect of a mutation on the interaction: disrupting interaction strength

## Zinc finger protein 398 (Homo sapiens), Q8TD17 V252M
gpt2l_human GPATCH2L
  effect of a mutation on the interaction: with no effect
mfap1_human MFAP1
  effect of a mutation on the interaction: with no effect

## Tripeptidyl-peptidase 2 (Homo sapiens), P29144 V1121I
echp_human EHHADH
  effect of a mutation on the interaction: with no effect
dpolb_human POLB
  effect of a mutation on the interaction: with no effect
pp16a_human PPP1R16A
  effect of a mutation on the interaction: with no effect

## Zinc finger protein 223 (Homo sapiens), Q9UK11 S357A
kr107_human KRTAP10-7
  effect of a mutation on the interaction: with no effect
zc4h2_human ZC4H2
  effect of a mutation on the interaction: with no effect
mdfi_human MDFI
  effect of a mutation on the interaction: with no effect

## Ribosomal RNA small subunit methyltransferase NEP1 (Homo sapiens) (from UniProt Q92979) A34G
cep55_human CEP55
  effect of a mutation on the interaction: with no effect

## Zinc finger protein 212 (Homo sapiens), Q9UDV6 E225K
sf3a3_human SF3A3
  effect of a mutation on the interaction: with no effect
FAM90A1
  effect of a mutation on the interaction: with no effect

## Tripeptidyl-peptidase 2 (Homo sapiens), P29144 T998R
echp_human EHHADH
  effect of a mutation on the interaction: with no effect
dpolb_human POLB
  effect of a mutation on the interaction: with no effect
pp16a_human PPP1R16A
  effect of a mutation on the interaction: with no effect

## Zinc finger protein 212 (Homo sapiens), Q9UDV6 H293Y
sf3a3_human SF3A3
  effect of a mutation on the interaction: with no effect
FAM90A1
  effect of a mutation on the interaction: with no effect

## Zinc finger protein 747 (Homo sapiens), Q9BV97 G28R
sufu_human SUFU [2]
  effect of a mutation on the interaction: with no effect

## Zinc finger protein 317 (Homo sapiens), Q96PQ6 Q19H
aen_human AEN
  effect of a mutation on the interaction: with no effect
nkap1_human NKAPD1
  effect of a mutation on the interaction: with no effect
rby1a_human RBMY1A1
  effect of a mutation on the interaction: with no effect

## Anamorsin (Homo sapiens), Q6FI81 A34E
ndor1_human NDOR1
  effect of a mutation on the interaction: disrupting interaction strength
glrx3_human GLRX3
  effect of a mutation on the interaction: with no effect

## Argininosuccinate lyase (Homo sapiens), P04424 R12Q
ntaq1_human NTAQ1
  effect of a mutation on the interaction: with no effect

## RNA-binding protein FXR2 (Homo sapiens), P51116 R483Q
frih_human FTH1
  effect of a mutation on the interaction: with no effect
scel_human SCEL
  effect of a mutation on the interaction: with no effect

## Golgi reassembly-stacking protein 2 (Homo sapiens) (from UniProt Q9H8Y8) T415M
dpyl2_human DPYSL2
  effect of a mutation on the interaction: with no effect
acy3_human ACY3
  effect of a mutation on the interaction: with no effect
cryaa_human CRYAA
  effect of a mutation on the interaction: with no effect
phs_human PCBD1
  effect of a mutation on the interaction: with no effect
zmat1_human ZMAT1
  effect of a mutation on the interaction: with no effect
ei2ba_human EIF2B1
  effect of a mutation on the interaction: with no effect
dmc1_human DMC1
  effect of a mutation on the interaction: with no effect
